Data reported in article PMC11455619 (Structure (London, England : 1993), 2024).

Biological target: T1, septin-7 (commercially purified, LSBio) (UniProt Q16181 1-437, labelled with RED-tris-NTA 2nd generation dye (Monolith His-Tag labeling kit))
T1 sequence (looked up): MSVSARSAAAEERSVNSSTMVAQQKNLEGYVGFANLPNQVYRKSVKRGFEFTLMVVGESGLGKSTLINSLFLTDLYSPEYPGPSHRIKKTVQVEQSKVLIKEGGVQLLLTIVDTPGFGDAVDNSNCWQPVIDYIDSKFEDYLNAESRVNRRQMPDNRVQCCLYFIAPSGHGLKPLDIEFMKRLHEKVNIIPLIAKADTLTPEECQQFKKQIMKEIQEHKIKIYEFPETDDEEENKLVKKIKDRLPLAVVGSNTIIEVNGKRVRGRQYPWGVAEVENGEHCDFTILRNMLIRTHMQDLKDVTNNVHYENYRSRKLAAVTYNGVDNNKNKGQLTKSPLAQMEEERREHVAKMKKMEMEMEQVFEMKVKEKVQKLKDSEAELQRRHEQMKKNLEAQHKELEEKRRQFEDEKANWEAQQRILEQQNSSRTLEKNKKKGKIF
Assay: MST

Kd: 6.84 µM
B1: SOD1 trimer, F20L-H46Q (FH) trimer-stabilising mutant (enzyme)
chain: not shown
